# In patent publication US20200277405A1, “COMPOSITION FOR ANTIBODY-DRUG CONJUGATE DIRECTED AGAINST TUMOR-CELL ASSOCIATED POLYSIALIC ACID” (Cornell University, priority 2019, published 2020):
# B1: mo735: well-known mouse-derived IgG2a monoclonal antibody 735 targeting polysialic acid (antibody, V domains shown)
# VH: QIQLQQSGPELVRPGASVKISCKASGYTFTDYYIHWVKQRPGEGLEWIGWIYPGSGNTKYNEKFKGKATLTVDTSSSTAYMQLSSLTSEDSAVYFCARGGKFAMDYWGQGTSVTVSS
# VL: DVVMTQTPLSLPVSLGDQASISCRSSQSLVHSNGNTYLYWYLQKPGQSPKPLIYRVSNRFSGVPDRFSGSGSGTDFTLKISRVEAEDLGVYFCFQGTHVPYTFGGGTRLEIK
# B2: ch735: chimeric human IgG1 polySia-specific mAb made by swapping variable regions of mouse mAb 735 (antibody, V domains shown)
# VH: QIQLQQSGPELVRPGASVKISCKASGYTFTDYYIHWVKQRPGEGLEWIGWIYPGSGNTKYNEKFKGKATLTVDTSSSTAYMQLSSLTSEDSAVYFCARGGKFAMDYWGQGTSVTVSS
# VL: DVVMTQTPLSLPVSLGDQASISCRSSQSLVHSNGNTYLYWYLQKPGQSPKPLIYRVSNRFSGVPDRFSGSGSGTDFTLKISRVEAEDLGVYFCFQGTHVPYTFGGGTRLEIK
# How the values were obtained:
# [1] = tested on: polySia in formalin-fixed, paraffin-embedded (FFPE) human tissue sections of SCLC; assay: IHC of FFPE tissue sections
# Excerpt: FIGS. 6A-6D depict immunostaining of antibody ch735 to polySia-expressing cancer cells. […] Data are the geometric mean fluorescence intensity (MFI), with the values reported as the average of three replicates and the error represented as the standard deviation of the mean. […] Cells were stained with ch735, wheat germ agglutinin (WGA) to stain the cell membrane, and Hoescht to stain nuclei. Scale bars, 10 μm. […] Scale bars, 200 μm.
# The avidin-biotin complex (ABC) immunoperoxidase method was performed essentially as previously described (Zhang et al., “Selection of Tumor Antigens as Targets for Immune Attack Using Immunohistochemistry: I. Focus on Gangliosides,” Int. J. Cancer 73:42-9 (1997), which is hereby incorporated by reference in its entirety). Briefly, the sections were quenched with 0.1% H2O2 in PBS for 15 min, blocked with avidin and biotin reagents (Vector, Burlingame, Calif.) for 10 min each, incubated in 10% serum from which the second antibody was raised and incubated with mAb 735 at 1 μg/ml for 1 h. This concentration was selected based on strong reactivity against known positive target cells and little or no background against stroma. The sections were subsequently incubated with biotinylated secondary antibodies for 30 min, and then incubated in ABC reagent per manufacturer's protocols (ABC Kit, Vector Laboratories, PK-6102) for 30 min. […]
# SW2 cells = assay: Colocalization microscopy, SW2; format: cell-based, human; details: transferrin and LAMP-3 markers
# Protocol: FIGS. 12A-12C depict colocalization of mo735 with markers that traffic to endolysosomal compartments. […] For LAMP-1 (right), confocal microscopic images were taken after labeling SH-SY5Y cells with ch735 or isotype antibody for 2 h. Following fixation and permeabilization, LAMP-1 antibody was applied and detected with anti-rabbit AF647 secondary. Anti-human IgG AF488 was used to detect ch735 or isotype antibody. […] Cross-sectional fluorescence profiles are shown at right with normalized pixel intensity for selected cells (marked with box in left confocal panels) versus distance across the cell for representative cross sections (marked with bar in right confocal panels).
# SH—SY5Y or SW2 cells were plated at 20,000 cells/cm^2 on poly-L-lysine coated 35 mm glass bottom dishes and adhered overnight. To remove polySia, cells were treated as described above. To measure receptor-antibody internalization, cells were incubated with 150 nM AF488 labeled ch735, human IgG isotype control (ThermoFisher Scientific), mo735, or mouse IgG isotype control (anti-MBP mAb, NEB) and 100 nM AF647 transferrin or AF647 anti-LAMP-3 antibody (Santa Cruz) for 1 h. Cells were washed and then fixed as described above. […] The fluorescence intensity of the plot profile was analyzed using FIJI software. Fluorescence intensity was normalized to the maximum value for each channel.
# [2] = target: embryonic brain glycopeptides; details: against embryonic brain glycopeptides (Hayrinen et al.); read-out: previously reported Kd; cited from earlier work
# [3] = tested on: polySia-negative MCF7 cells; assay: Internalization assay, MCF7; format: cell-based, human; details: after 1 h
# Protocol: (§1) FIGS. 10A-10E depict internalization of ch735 into polySia-positive cancer cells. […] Nuclei were stained by Hoescht (blue). Scale bar, 10 Fluorescence intensity was measured across the dotted line and normalized to the maximum value in each channel. Arrows indicate regions of colocalization. […] Nuclei were stained by Hoescht. Scale bar, 10 Fluorescence intensity was measured across the dotted line and normalized to the maximum value in each channel. Arrows indicate regions of colocalization. The inset show only the ch735 and DNA channels of the boxed region. […] Scale bar, 10 Fluorescence intensity was measured across the dotted white line and normalized to the maximum value in each channel. […]
# To calculate percent internalization, pre-chilled cells were incubated with 50 nM ch735 on ice for 1 h and then washed to remove unbound antibodies. […] Cells were fixed in 2% paraformaldehyde for 20 min and then stained with AF488-labeled antibody against human IgG and analyzed by flow cytometry and FlowJo software. Receptor-antibody complex internalization was calculated using the geometric mean as percent fluorescent intensity loss at 37° C. relative to that on ice. For each sample, the geometric mean fluorescence intensity (MFI) of 10,000 cells was measured in triplicate.
# SH-SY5Y cells = assay: Colocalization microscopy, SH-SY5Y; format: cell-based, human; details: transferrin, LAMP-3, LAMP-1 markers
# Protocol: as §1
# FIGS. 12A-12C depict colocalization of mo735 with markers that traffic to endolysosomal compartments. […] Following fixation and permeabilization, LAMP-1 antibody was applied and detected with anti-rabbit AF647 secondary. […] Cross-sectional fluorescence profiles are shown at right with normalized pixel intensity for selected cells (marked with box in left confocal panels) versus distance across the cell for representative cross sections (marked with bar in right confocal panels).
# SH—SY5Y or SW2 cells were plated at 20,000 cells/cm^2 on poly-L-lysine coated 35 mm glass bottom dishes and adhered overnight. […] The fluorescence intensity of the plot profile was analyzed using FIJI software. […]
Molecule,IHC staining of polySia ([1]; FFPE human SCLC tissue sections),"IHC staining of polySia ([1]; adjacent normal tissue, except bronchial epithelial cells and alveolar macrophages)",compartments of accumulation after internalization (confocal) (SW2 cells),Kd [2] [nM],antibody internalization [3],compartments of accumulation after internalization (confocal) (SH-SY5Y cells)
B1,strong staining,little to no staining,compartmentalized in early and recycling endosomes,~5,–,–
B2,–,–,–,–,no internalization,rapidly internalized in endosomal/lysosomal compartments
